For test [1], the target named is α-D-fructofuranosidase and difructose dianhydride I synthase/hydrolase from Bifidobacterium dentium (Bifidobacterium dentium JCM 1195). Kind of test: SEC; size-exclusion chromatography of the purified protein; conditions of this analysis not told (the purification used Hiload 16/60 Superdex 200 pg in 25 mM Tris HCl pH 7.0, 300 mM NaCl).
For test [2] the target is unchanged. Kind of test: crystal structure; sitting drop vapor diffusion at 20 °C, 10 mg/ml αFFase1 in 5 mM Na acetate pH 6.0, reservoir 20% PEG 3350 and 0.2 M disodium tartrate; ligand-free and cocrystals with D-fructose or D-arabinose; hexamer in the asymmetric unit.

One may read the stoichiometry N as a count of units in the complex or per binding partner.

Take “α-D-fructofuranosidase and difructose dianhydride I synthase/hydrolase from Bifidobacterium dentium (enzyme)”: the stoichiometry N in test [1] and in test [2] was 6 throughout.
